{"source": "paper PMC8298264", "about": "“Function of cofactor Akirin2 in the regulation of gene expression in model human neutrophil-like HL60 cells” (Bioscience Reports, 2021)", "molecules": {"B1": {"name": "sp¦P27824¦CALX_HUMAN (protein, UniProt P27824 21-592, looked up)", "Calnexin": "HDGHDDDVIDIEDDLDDVIEEVEDSKPDTTAPPSSPKVTYKAPVPTGEVYFADSFDRGTLSGWILSKAKKDDTDDEIAKYDGKWEVEEMKESKLPGDKGLVLMSRAKHHAISAKLNKPFLFDTKPLIVQYEVNFQNGIECGGAYVKLLSKTPELNLDQFHDKTPYTIMFGPDKCGEDYKLHFIFRHKNPKTGIYEEKHAKRPDADLKTYFTDKKTHLYTLILNPDNSFEILVDQSVVNSGNLLNDMTPPVNPSREIEDPEDRKPEDWDERPKIPDPEAVKPDDWDEDAPAKIPDEEATKPEGWLDDEPEYVPDPDAEKPEDWDEDMDGEWEAPQIANPRCESAPGCGVWQRPVIDNPNYKGKWKPPMIDNPSYQGIWKPRKIPNPDFFEDLEPFRMTPFSAIGLELWSMTSDIFFDNFIICADRRIVDDWANDGWGLKKAADGAAEPGVVGQMIEAAEERPWLWVVYILTVALPVFLVILFCCSGKKQTSGMEYKKTDAPQPDVKEEEEEKEEEKDKGDEEEEGEEKLEEKQKSDAEEDGGTVSQEEEDRKPKAEEDEILNRSPRNRKPRRE"}, "B2": {"name": "sp¦P04899¦GNAI2_HUMAN (protein, UniProt P04899 2-355, looked up)", "Guanine nucleotide-binding …": "GCTVSAEDKAAAERSKMIDKNLREDGEKAAREVKLLLLGAGESGKSTIVKQMKIIHEDGYSEEECRQYRAVVYSNTIQSIMAIVKAMGNLQIDFADPSRADDARQLFALSCTAEEQGVLPDDLSGVIRRLWADHGVQACFGRSREYQLNDSAAYYLNDLERIAQSDYIPTQQDVLRTRVKTTGIVETHFTFKDLHFKMFDVGGQRSERKKWIHCFEGVTAIIFCVALSAYDLVLAEDEEMNRMHESMKLFDSICNNKWFTDTSIILFLNKKDLFEEKITHSPLTICFPEYTGANKYDEAASYIQSKFEDLNKRKDTKEIYTHFTCATDTKNVQFVFDAVTDVIIKNNLKDCGLF"}, "B3": {"name": "sp¦Q14683¦SMC1A_HUMAN (protein, UniProt Q14683 1-1233, looked up)", "Structural maintenance of …": "MGFLKLIEIENFKSYKGRQIIGPFQRFTAIIGPNGSGKSNLMDAISFVLGEKTSNLRVKTLRDLIHGAPVGKPAANRAFVSMVYSEEGAEDRTFARVIVGGSSEYKINNKVVQLHEYSEELEKLGILIKARNFLVFQGAVESIAMKNPKERTALFEEISRSGELAQEYDKRKKEMVKAEEDTQFNYHRKKNIAAERKEAKQEKEEADRYQRLKDEVVRAQVQLQLFKLYHNEVEIEKLNKELASKNKEIEKDKKRMDKVEDELKEKKKELGKMMREQQQIEKEIKEKDSELNQKRPQYIKAKENTSHKIKKLEAAKKSLQNAQKHYKKRKGDMDELEKEMLSVEKARQEFEERMEEESQSQGRDLTLEENQVKKYHRLKEEASKRAATLAQELEKFNRDQKADQDRLDLEERKKVETEAKIKQKLREIEENQKRIEKLEEYITTSKQSLEEQKKLEGELTEEVEMAKRRIDEINKELNQVMEQLGDARIDRQESSRQQRKAEIMESIKRLYPGSVYGRLIDLCQPTQKKYQIAVTKVLGKNMDAIIVDSEKTGRDCIQYIKEQRGEPETFLPLDYLEVKPTDEKLRELKGAKLVIDVIRYEPPHIKKALQYACGNALVCDNVEDARRIAFGGHQRHKTVALDGTLFQKSGVISGGASDLKAKARRWDEKAVDKLKEKKERLTEELKEQMKAKRKEAELRQVQSQAHGLQMRLKYSQSDLEQTKTRHLALNLQEKSKLESELANFGPRINDIKRIIQSREREMKDLKEKMNQVEDEVFEEFCREIGVRNIREFEEEKVKRQNEIAKKRLEFENQKTRLGIQLDFEKNQLKEDQDKVHMWEQTVKKDENEIEKLKKEEQRHMKIIDETMAQLQDLKNQHLAKKSEVNDKNHEMEEIRKKLGGANKEMTHLQKEVTAIETKLEQKRSDRHNLLQACKMQDIKLPLSKGTMDDISQEEGSSQGEDSVSGSQRISSIYAREALIEIDYGDLCEDLKDAQAEEEIKQEMNTLQQKLNEQQSVLQRIAAPNMKAMEKLESVRDKFQETSDEFEAARKRAKKAKQAFEQIKKERFDRFNACFESVATNIDEIYKALSRNSSAQAFLGPENPEEPYLDGINYNCVAPGKRFRPMDNLSGGEKTVAALALLFAIHSYKPAPFFVLDEIDAALDNTNIGKVANYIKEQSTCNFQAIVISLKEEFYTKAESLIGVYPEQGDCVISKVLTFDLTKYPDANPNPNEQ"}, "B4": {"name": "sp¦P84103¦SRSF3_HUMAN (protein, UniProt P84103 1-164, looked up)", "Serine/arginine-rich splicing …": "MHRDSCPLDCKVYVGNLGNNGNKTELERAFGYYGPLRSVWVARNPPGFAFVEFEDPRDAADAVRELDGRTLCGCRVRVELSNGEKRSRNRGPPPSWGRRPRDDYRRRSPPPRRRSPRRRSFSRSRSRSLSRDRRRERSLSRERNHKPSRSFSRSRSRSRSNERK"}, "B5": {"name": "sp¦Q8N5K1¦CISD2_HUMAN (protein, UniProt Q8N5K1 2-135, looked up)", "CDGSH iron-sulfur …": "VLESVARIVKVQLPAYLKRLPVPESITGFARLTVSEWLRLLPFLGVLALLGYLAVRPFLPKKKQQKDSLINLKIQKENPKVVNEINIEDLCLTKAAYCRCWRSKTFPACDGSHNKHNELTGDNVGPLILKKKEV"}, "B6": {"name": "sp¦Q9UL25¦RAB21_HUMAN (protein, UniProt Q9UL25 2-222, looked up)", "Ras-related protein Rab-21": "AAAGGGGGGAAAAGRAYSFKVVLLGEGCVGKTSLVLRYCENKFNDKHITTLQASFLTKKLNIGGKRVNLAIWDTAGQERFHALGPIYYRDSNGAILVYDITDEDSFQKVKNWVKELRKMLGNEICLCIVGNKIDLEKERHVSIQEAESYAESVGAKHYHTSAKQNKGIEELFLDLCKRMIETAQVDERAKGNGSSQPGTARRGVQIIDDEPQAQTSGGGCC"}, "B7": {"name": "sp¦Q13464¦ROCK1_HUMAN (protein, UniProt Q13464 2-1354, looked up)", "Rho-associated protein kinase …": "STGDSFETRFEKMDNLLRDPKSEVNSDCLLDGLDALVYDLDFPALRKNKNIDNFLSRYKDTINKIRDLRMKAEDYEVVKVIGRGAFGEVQLVRHKSTRKVYAMKLLSKFEMIKRSDSAFFWEERDIMAFANSPWVVQLFYAFQDDRYLYMVMEYMPGGDLVNLMSNYDVPEKWARFYTAEVVLALDAIHSMGFIHRDVKPDNMLLDKSGHLKLADFGTCMKMNKEGMVRCDTAVGTPDYISPEVLKSQGGDGYYGRECDWWSVGVFLYEMLVGDTPFYADSLVGTYSKIMNHKNSLTFPDDNDISKEAKNLICAFLTDREVRLGRNGVEEIKRHLFFKNDQWAWETLRDTVAPVVPDLSSDIDTSNFDDLEEDKGEEETFPIPKAFVGNQLPFVGFTYYSNRRYLSSANPNDNRTSSNADKSLQESLQKTIYKLEEQLHNEMQLKDEMEQKCRTSNIKLDKIMKELDEEGNQRRNLESTVSQIEKEKMLLQHRINEYQRKAEQENEKRRNVENEVSTLKDQLEDLKKVSQNSQLANEKLSQLQKQLEEANDLLRTESDTAVRLRKSHTEMSKSISQLESLNRELQERNRILENSKSQTDKDYYQLQAILEAERRDRGHDSEMIGDLQARITSLQEEVKHLKHNLEKVEGERKEAQDMLNHSEKEKNNLEIDLNYKLKSLQQRLEQEVNEHKVTKARLTDKHQSIEEAKSVAMCEMEKKLKEEREAREKAENRVVQIEKQCSMLDVDLKQSQQKLEHLTGNKERMEDEVKNLTLQLEQESNKRLLLQNELKTQAFEADNLKGLEKQMKQEINTLLEAKRLLEFELAQLTKQYRGNEGQMRELQDQLEAEQYFSTLYKTQVKELKEEIEEKNRENLKKIQELQNEKETLATQLDLAETKAESEQLARGLLEEQYFELTQESKKAASRNRQEITDKDHTVSRLEEANSMLTKDIEILRRENEELTEKMKKAEEEYKLEKEEEISNLKAAFEKNINTERTLKTQAVNKLAEIMNRKDFKIDRKKANTQDLRKKEKENRKLQLELNQEREKFNQMVVKHQKELNDMQAQLVEECAHRNELQMQLASKESDIEQLRAKLLDLSDSTSVASFPSADETDGNLPESRIEGWLSVPNRGNIKRYGWKKQYVVVSSKKILFYNDEQDKEQSNPSMVLDIDKLFHVRPVTQGDVYRAETEEIPKIFQILYANEGECRKDVEMEPVQQAEKTNFQNHKGHEFIPTLYHFPANCDACAKPLWHVFKPPPALECRRCHVKCHRDHLDKKEDLICPCKVSYDVTSARDMLLLACSQDEQKKWVTHLVKKIPKNPPSGFVRASPRTLSTRSTANQSFRKVVKNTSGKTS"}, "B8": {"name": "sp¦O43592¦XPOT_HUMAN (protein, UniProt O43592 1-962, looked up)", "Exportin-T": "MDEQALLGLNPNADSDFRQRALAYFEQLKISPDAWQVCAEALAQRTYSDDHVKFFCFQVLEHQVKYKYSELTTVQQQLIRETLISWLQAQMLNPQPEKTFIRNKAAQVFALLFVTEYLTKWPKFFFDILSVVDLNPRGVDLYLRILMAIDSELVDRDVVHTSEEARRNTLIKDTMREQCIPNLVESWYQILQNYQFTNSEVTCQCLEVVGAYVSWIDLSLIANDRFINMLLGHMSIEVLREEACDCLFEVVNKGMDPVDKMKLVESLCQVLQSAGFFSIDQEEDVDFLARFSKLVNGMGQSLIVSWSKLIKNGDIKNAQEALQAIETKVALMLQLLIHEDDDISSNIIGFCYDYLHILKQLTVLSDQQKANVEAIMLAVMKKLTYDEEYNFENEGEDEAMFVEYRKQLKLLLDRLAQVSPELLLASVRRVFSSTLQNWQTTRFMEVEVAIRLLYMLAEALPVSHGAHFSGDVSKASALQDMMRTLVTSGVSSYQHTSVTLEFFETVVRYEKFFTVEPQHIPCVLMAFLDHRGLRHSSAKVRSRTAYLFSRFVKSLNKQMNPFIEDILNRIQDLLELSPPENGHQSLLSSDDQLFIYETAGVLIVNSEYPAERKQALMRNLLTPLMEKFKILLEKLMLAQDEERQASLADCLNHAVGFASRTSKAFSNKQTVKQCGCSEVYLDCLQTFLPALSCPLQKDILRSGVRTFLHRMIICLEEEVLPFIPSASEHMLKDCEAKDLQEFIPLINQITAKFKIQVSPFLQQMFMPLLHAIFEVLLRPAEENDQSAALEKQMLRRSYFAFLQTVTGSGMSEVIANQGAENVERVLVTVIQGAVEYPDPIAQKTCFIILSKLVELWGGKDGPVGFADFVYKHIVPACFLAPLKQTFDLADAQTVLALSECAVTLKTIHLKRGPECVQYLQQEYLPSLQVAPEIIQEFCQALQQPDAKVFKNYLKVFFQRAKP"}}, "tested_on": "human HL60 cells", "assay": "SWATH-MS proteomics, differential protein representation, akirin2 KO vs WT HL60 cells", "format": "cell-based", "conditions": "akirin2 KO vs WT HL60 cells, sheet \"Under-represented in KO\"", "in_short": "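Differential representation compares akirin2 KO with WT HL60 across three biological replicates, 5 µg digest each, acquired by data-independent SWATH on a 120-min gradient. Library built from combined IDA runs searched with Paragon; proteins accepted at 1% FDR, with total-area-sum normalization.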", "data": [{"molecule": "B1", "values": [{"measurement": "Fold Change", "setting": "KO vs WT", "result": 0.6087}, {"measurement": "Log (Fold Change)", "setting": "KO vs WT", "result": -0.2156}]}, {"molecule": "B2", "values": [{"measurement": "Fold Change", "setting": "KO vs WT", "result": 0.61}, {"measurement": "Log (Fold Change)", "setting": "KO vs WT", "result": -0.2146}]}, {"molecule": "B3", "values": [{"measurement": "Fold Change", "result": 0.2754}, {"measurement": "Log (Fold Change)", "result": -0.5601}]}, {"molecule": "B4", "values": [{"measurement": "Fold Change", "result": 0.2712}, {"measurement": "Log (Fold Change)", "result": -0.5667}]}, {"molecule": "B5", "values": [{"measurement": "Fold Change", "setting": "KO vs WT", "result": 0.6126}, {"measurement": "Log (Fold Change)", "setting": "KO vs WT", "result": -0.2128}]}, {"molecule": "B6", "values": [{"measurement": "Fold Change", "setting": "KO vs WT", "result": 0.6117}, {"measurement": "Log (Fold Change)", "setting": "KO vs WT", "result": -0.2135}]}, {"molecule": "B7", "values": [{"measurement": "Fold Change", "setting": "KO vs WT", "result": 0.6099}, {"measurement": "Log (Fold Change)", "setting": "KO vs WT", "result": -0.2148}]}, {"molecule": "B8", "values": [{"measurement": "Fold Change", "setting": "KO vs WT", "result": 0.6107}, {"measurement": "Log (Fold Change)", "setting": "KO vs WT", "result": -0.2142}]}]}
